Experimental data as given in publication PMC4822050, “Hemi-methylated DNA opens a closed conformation of UHRF1 to facilitate its histone recognition” (Nature Communications, 2016).

B1: Spacer of UHRF1 (residues 587–674) [human] / TTD of UHRF1 (residues 134–285) [human] (parent)
chain 1: PGPWTKEGKDRIKKLGLTMQYPEGYLEALANREREKENSKREEEEQQEGGFASPRTGKGKWKRKSAGGGPSRAGSPRRTSKKTKVEPY
chain 2: LYKVNEYVDARDTNMGAWFEAQVVRVTRKAPSRDEPCSSTSRPALEEDVIYHVKYDDYPENGVVQMNSRDVRARARTIIKWQDLEVGQVVMLNYNPDNPKERGFWYDAEISRKRETRTARELYANVVLGDDSLNDCRIIFVDEVFKIERPGE

Variants of: B1
Assay: ITC
Conditions: with TTD of UHRF1 (residues 134–285) [human]; Cell: Spacer; Sy: TTD

| Kd [µM] | Variant |
| --- | --- |
| 21.4 | chain 1 PGPWTKEGKDRIKKLGLTMQYPEGYLEALANREREKENSKREEEEQQEGGFASPRTGKGKWKAKSAGGGPSRAGSPRRTSKKTKVEPY |
| 1.26 | chain 1 PGPWTKEGKDRIKKLGLTMQYPEGYLEALANREREKENSKREEEEQQEGGFASPRTGKGKWKRKSAGGGPSRAGSPRRTDKKTKVEPY |
| 5.94 | chain 1 PGPWTKEGKDRIKKLGLTMQYPEGYLEALANREREKENSKREEEEQQEGGFASPRTGKGKWDRKSAGGGPSRAGSPRRTSKKTKVEPY |
| 1.15 | chain 1 PGPWTKEGKDRIKKLGLTMQYPEGYLEALANREREKENSKREEEEQQEGGFADPRTGKGKWKRKSAGGGPSRAGSPRRTSKKTKVEPY |
